B1: antibody 441 (antibody, V domains shown)
VH: EVQLVESGGGVVRPGGSLRLSCAASGFTFGDYGMSWVRQAPGKGLEWVSGINWNGGSTGYADSVKGRFTISRDNAKNSLYLQMNSLRAEDTALYYCASDLVRGVIGFDYWGQGTLVTVSS
VL: SYELTQPPSVSVSPGQTARITCSGDALPKQYAYWYQQKPGQAPVLVIYKDSERPSGIPERFSGSSSGTTVTLTISGVQAEDEADYYCQSADSSGITGVFGGGTKLTVL
B2: antibody 461 (antibody, V domains shown)
VH: EVQLVESGGGLVKPGGSLRLSCAASGFTFSSYSMNWVRQAPGKGLEWVSSISSSSSYIYYADSVKGRFTISRDNAKNSLYLQMNSLRAEDTAVYYCASNPAAGQEAYYYYGMDVWGQGTTVTVSS
VL: not shown
B3: antibody 455 (antibody, V domains shown)
VH: QVQLVQSGAEVKKPGSSVKVSCKASGGTFSSYAISWVRQAPGQGLEWMGRIIPILGIANYAQKFQGRVTITADKSTSTAYMELSSLRSEDTAVYYCARDSIVVPAAIISGYYYYGMDVWGQGTTVTVSS
VL: QSVLTQPPSVSAAPGQKVTISCSGSSSNIGNNYVSWYQQLPGTAPKLLIYDNNKRPSGIPDRFSGSKSGTSATLGITGLQTGDEADYYCGTWDSSLSAGRVFGGGTKLTVL
B4: antibody 451 (antibody, V domains shown)
VH: EVQLVESGGGLVQPGGSLRLSCAASGFTFSTYWMSWVRQAPGKGLEWVANIKQDGSEKYYVDSVKGRFTISRDNAKNSLYLQMNSLRAEDTAVYYCARLGGSSWYFDYWGQGTLVTVSS
VL: not shown
B5: antibody 448 (antibody, V domains shown)
VH: QVQLVQSGAEVKKPGASVKVSCKASGYTFTSYGISWVRQAPGQGLEWMGWISAYNGNTNYAQKLQGRVTMTTDTSTSTAYMELRSLRSDDTAVYYCAIELLEGFYYYYGMDVWGQGTTVTVSS
VL: SYELTQPPSVSVSPGQTARITCSGDALPKQYAYWYQQKPGQAPVLVIYKDSERPSGIPERFSGSSSGTTVTLTISGVQAEDEADYYCQSADSSGTYPYVVFGGGTKLTVL
B6: antibody 453 (antibody, V domains shown)
VH: QVQLVESGGGVVQPGRSLRLSCAASGFTFSSYAMYWVRQAPGKGLEWVAVISYDGSNKYYADSVKGRFTISRDNSKNTLYLQMNSLRAEDTAVYYCARDRPHYYGSGRKILNLYGMDVWGQGTTVTVSS
VL: DIQLTQSPSFLSASVGDRVTITCRASQGISSYLAWYQQKPGKAPKLLIYAASTLQSGVPSSFSGSGSGTEFTLTISSLQPEDFATYYCQQLNSYPPFTFGPGTKVDIK
B7: antibody 449 (antibody, V domains shown)
VH: not shown
VL: QSALTQPASVSGSPGQSITISCTGTSSDVGGYNYVSWYQQHPGKAPKLMIYEVSNRPSGVSNRFSGSKSGNTASLTISGLQAEDEADYYCSSYTSSSTVVFGGGTKLTVL
B8: antibody 458 (antibody, V domains shown)
VH: QVQLVESGGGVVQPGRSLRLSCAASEFTFATYAMHWVRQAPGKGLEWVALISQDGSNKHYADSVKGRFTISRDNSKNTLYLQMNSLRAEGTAIYYCARESLEAAGPPFDYWGQGTLVTVSS
VL: SYELTQPPSVSVSPGQTATIICSGDKLGEKYASWYQQKPGQSPALVIYQDRKRPSGIPERFSGSNSGNTATLTISGTQAMDEADYYCQAWDSSNSVVFGGGTKLTVP

Consider 8 molecules from US20210292393A1 (published 2021).

For one test, the target named is SARS-CoV-2 full length spike protein, V367F mutant (SARS-CoV-2, UniProt P0DTC2 14-1273).
Consider B1, for which the “median fluorescence fold over isotype control” value (from here on “median fluorescence fold”) was determined as 6.24 fold over isotype.
On the same count and under the same terms, with B2 the figure was 6.89 fold over isotype.
Still for that read-out and setting: next, B3: 32.3 fold over isotype.
For B4, the “median fluorescence fold” value amounted to 29.9 fold over isotype.
On the same count and under the same terms, next, B5: 5.79 fold over isotype; B6: 39.4 fold over isotype.
As to B7, the “median fluorescence fold” value worked out at 36.9 fold over isotype.
Same read-out and setting: next, B8: 27.4 fold over isotype.

The target of a further test is SARS-CoV-2 full length spike protein, D614G mutant (SARS-CoV-2, UniProt P0DTC2 14-1273).
For the molecule B1, the “median fluorescence fold” value is 14.9 fold over isotype.
Same read-out and setting: next, B2: 27.8 fold over isotype; B3: 8.24 fold over isotype; B4: 6.29 fold over isotype.
On the same count and under the same terms, next, B5: 13.3 fold over isotype; B6: 7.41 fold over isotype.
Still for that read-out and setting: next, B7: 68.1 fold over isotype; B8: 6.23 fold over isotype.
